Laboratory results published in article PMC4299175.

Biological target: GST-tagged recombinant phosphorylated human ERK2 (human) (UniProt P28482)
Chain of UniProt P28482 (P28482 whole entry): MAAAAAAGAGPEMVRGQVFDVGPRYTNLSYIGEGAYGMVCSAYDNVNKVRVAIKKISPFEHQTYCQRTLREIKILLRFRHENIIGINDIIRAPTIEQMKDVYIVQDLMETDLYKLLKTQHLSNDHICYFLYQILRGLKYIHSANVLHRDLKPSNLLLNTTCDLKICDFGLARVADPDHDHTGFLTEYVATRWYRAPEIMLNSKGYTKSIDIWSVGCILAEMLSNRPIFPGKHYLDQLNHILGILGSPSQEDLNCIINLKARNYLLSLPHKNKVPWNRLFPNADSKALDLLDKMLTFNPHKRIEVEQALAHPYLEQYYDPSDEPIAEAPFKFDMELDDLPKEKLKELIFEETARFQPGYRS

B1: GST-S147P, glutathione-S-transferase-tagged full-length human DUSP5 serine 147 proline mutant (enzyme)
chain: MKVTSLDGRQLRKMLRKEAAARCVVLDCRPYLAFAASNVRGSLNVNLNSVVLRRARGGAVSARYVLPDEAARARLLQEGGGGVAAVVVLDQGSRHWQKLREESAARVVLTSLLACLPAGPRVYFLKGGYETFYSEYPECCVDVKPIPQEKIESERALISQCGKPVVNVSYRPAYDQGGPVEILPFLYLGSAYHASKCEFLANLHITALLNVSRRTSEACATHLHYKWIPVEDSHTADISSHFQEAIDFIDCVREKGGKVLVHCEAGISRSPTICMAYLMKTKQFRLKEAFDYIKQRRSMVSPNFGFMGQLLQYESEILPSTPNPQPPSCQGEAAGSSLIGHLQTLSPDMQGAYCTFPASVLAPVPTHSTVSELSRSPVATATSC
dephosphorylation of pERK2 by western blot, dose curve 0.1-10 nM enzyme, 15 min; concentration at which the pERK band is completely absent (0.5 nM for GST-DUSP5): 5 nM
